Reference: the supplement of paper PMC10567573

B1: RHOBTB1 (parent)
chain: TFGDHHKDRRFAYGRSDVVVLCFS

Variants of: B1
Assay: protein stability index of a GFP-peptide fusion (GPS, HEK-293T) (PSI 1-6); higher = more stable
Details: c terminus: a fixed tail appended
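Also: lentivirally expressed fusions sorted by FACS into six bins by GFP to DsRed ratio, PSI derived from sequencing read proportions per bin multiplied by bin number.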

Protein stability index: each site, then its substitutions
C22: T 1.3 | E 2.2 | Y 1.07 | N 2.23 | Q 2.2 | M 2.88 | A 1.72 | V 3.33 | W 2.73 | S 1.94 | P 2.21
S24: P 1.48 | R 2.95 | N 1.65 | V 2.3 | G 2.54 | F 2.84 | Y 4.57 | H 2.98 | T 2.16 | D 1.66 | C 3.85 | E 2.05
R10: H 2.59 | N 3.35 | Q 2.27 | C 2.7 | K 2.21 | M 1.76 | E 1.47 | V 2.19 | P 3.19 | T 2.93 | S 3.52 | G 4.76 | I 1.96 | D 2.03 | A 2.32
V18: G 1.68 | I 1.42 | P 1.58 | D 2.03 | W 2.21 | Y 2.2 | M 2.06 | L 3.53 | Q 1.72 | N 1.57 | T 1.54 | K 3.01 | C 2.01 | S 1.46 | A 1.74 | R 2.92 | H 1.88 | E 2.19
Y13: E 1.93 | T 1.62 | C 2.38 | I 3.14 | Q 2.78 | A 1.36 | P 1.04 | K 2.4 | M 1.55 | R 1.33 | N 2.36 | H 2.49 | G 1.46 | S 2.66 | D 2.16
S16: L 2.15 | Y 1.23 | I 1.57 | E 2.07 | N 2.38 | D 2.52 | W 2.29 | M 2.96 | P 3.17 | Q 2.83 | A 4.21 | H 2.91 | K 2.43
F23: K 2.25 | G 2.47 | E 3.12 | Y 2.22 | W 1.81 | P 2.16 | H 2.6 | S 1.66 | M 2.59 | C 2.41 | R 2.38 | I 1.41 | D 3.1 | T 1.68 | L 1.42 | N 3.08
V20: C 1.51 | N 2.56 | E 2.7 | Y 1.75 | D 2.62 | G 2.05 | F 2.54 | L 2.42 | K 1.73 | P 2.61 | T 1.68 | Q 1.7 | H 1.62 | A 3.28 | S 1.95 | R 1.97 | M 1.44
A12: Q 2.33 | G 1.57 | C 2.93 | V 1.95 | Y 1.9 | H 3.79 | D 2.58 | K 1.46 | I 3.53 | R 2.98 | L 2.48 | T 2.65 | E 1.93
D17: R 1.79 | M 3.13 | C 3.12 | Q 2.43 | F 1.51 | W 2.78 | P 3.44 | T 2.67 | N 2.23 | I 3.11 | K 1.63
R15: Q 2.66 | N 1.84 | A 2.04 | I 2.55 | S 2.34 | E 1.75 | Y 3.25 | D 2.36 | V 4.25 | P 1.48 | L 2.23 | T 2.11 | K 2.27
G14: K 2.61 | T 3.19 | S 1.75 | R 2.76 | P 3.26 | F 3.41 | Q 3.11 | H 1.85 | I 2.49 | E 1.99 | D 2.49 | V 3.71 | N 2.25
